Measurements from the DeepSol protein solubility set.

Assay: soluble on expression in E. coli; label from the status in PepcDB or PDB records

Sequence | soluble on expression in E. coli
MGSDKIHHHHHHMEVKELERDKNRVVLEYVFGAEEIAQAEDKAVRYLNQRVEIPGFRKGRIPKNVLKMKLGEEFQEYTLDFLMDLIPDTLKDRKLILSPIVTERELKDVTARVVVEVHEEPEVRIGDISKIEVEKVDEEKVLEKYVERRIEDLRESHALLEPKEGPAEAGDLVRVNMEVYNEEGKKLTSREYEYVISEDEDRPFVKDLVGKKKGDVVEIEREYEGKKYTYKLEVEEVYKRTLPEIGDELAKSVNNEFETLEQLKESLKKEGKEIYDVEMKESMREQLLEKLPEIVEIEISDRTLEILVNEAINRLKREGRYEQIVSSYESEEKFREELKERILDDIKRDRVIEVLAQEKGISVNDEELEKEAEELAPFWGISPDRAKSLVKARQDLREELRWAILKRKVLDLLLQEVKVKVVEPKGEGDDSEGKEDN | not soluble
AHHHHHHGSKILAIAPNISRPYLGPAAVVHNTLKGFIKINKELEREDIEITFLSINDKIKSKKLTDNINIIGTKRFPPVTFTGEIQALFVSRKLEKPDLVHSHDLYEIFPWILKKIPTIFTLHGIVWKEKMFTKSLYAKLWYYLYEKRLRAYHKKFTKFVAISP | not soluble
MGSDKIHHHHHHMGQRIPVTLGNIAPLAVKPFRPGKLALVCEGGGQRGIFTAGVLDEFMRAGFNPFDLMLGTSAGAQNLSAYMCNQQGYARKVITRYTTSRQFFDPMRFVRGGNLIDLDWLVEATSQQMPLAMNYAEAQFALGKELWLCACRGDDYSASYFSPTPQTWLDLIRASSAIPGFYRSGVLLDGVSYLDGGVSDAIPVQEAARRGAQTIVVIRTVPSQMFYTPQWFKRMERWLGESSLQPLVNLVHHHETTYRAIQQFIEKPPGKLRIFEIYPQRPLRSMALGSRLPALLEDYKTGRQCGRYFLATVGKLLADQPPLLRHAPRIARPAPVVVPPVPVANEAPQATIIPAPQANDPSFDHEDLA | not soluble
MGSDKIHHHHHHMLCSVIQRQTREVSNTMSLDSYYLGFDLSTQQLKCLAINQDLKIVHSETVEFEKDLPHYHTKKGVYIHGDTIECPVAMWLEALDLVLSKYREAKFPLNKVMAVSGSCQQHGSVYWSSQAESLLEQLNKKPEKDLLHYVSSVAFARQTAPNWQDHSTAKQCQEFEECIGGPEKMAQLTGSRAHFRFTGPQILKIAQLEPEAYEKTKTISLVSNFLTSILVGHLVELEEADACGMNLYDIRERKFSDELLHLIDSSSKDKTIRQKLMRAPMKNLIAGTICKYFIEKYGFNTNCKVSPMTGDNLATICSLPLRKNDVLVSLGTSTTVLLVTDKYHPSPNYHLFIHPTLPNHYMGMICYCNGSLARERIRDELNKERENNYEKTNDWTLFNQAVLDDSESSENELGVYFPLGEIVPSVKAINKRVIFNPKTGMIEREVAKFKDKRHDAKNIVESQALSCRVRISPLLSDSNASSQQRLNEDTIVKFDYDESPLRDYLNKRPERTFFVGGASKNDAIVKKFAQVIGATKGNFRLETPNSCALGGCYKAMWSLLYDSNKIAVPFDKFLNDNFPWHVMESISDVDNENWDRYNSKIVPLSELEKTLI | not soluble
MTSNQLAQYIDHTALTAEKNEQDISTLCNEAIEHGFYSVCINSAYIPLAKEKLAGSNVKICTVVGFPLGANLTSVKAFETQESIKAGANEIDMVINVGWIKSQKWDEVKQDIQAVFNACNGTPLKVILETCLLTKDEIVKACEICKEIGVAFVKTSTGFNKGGATVEDVALMKNTVGNIGVKASGGVRDTETALAMIKAGATRIGASAGIAIISGTQDTQSTYLEHHHHHH | soluble
MGSDKIHHHHHHMADFSNQIVTIKKGLDLPIAGEPRQVIELGAKPSQVAVLGEEFVGLKPTMLVEEGDWVQKGQALFEDKKTPGVLFTAPASGQVVAINRGERRILQSVVIRCDDGENRDGQISFEIHQDIAALARSTVQAQLVKSGLWTALRTRPFSRVPALDSTPAGIFVTAIDTNPLAADPRLIIAEQTEAFKAGLLVLSRLTEGKVYLCQDKGEAIVKEALPQLEVRRFDGVHPAGLVGTHIHFTLPVSLERQVWHIGYQDVIAYGKLFQTGELYTDRIVALGGPSVLNPRLLRTQLGAELSPLVSDDIKPGQNRVVSGSVLSGHTAVGVHDFLGRFHNQVSVLSEDAQHHVLSWVRGGSDKFSITRAVTSRLFGATKLFEFTTHQGGSARAMMAFGQLDRVMPLDILPTLLVRDLVVRDTDEAQALGALELDEEDLALCTFVCPGKYDFGKELRACLDVIEREG | not soluble
